Experiment [1] deals with T1, His6-p97 WT (human, UniProt P55072 1-806).
T1 construct: p97/VCP, human; from plasmid pET15b-His6-p97; hexamer by mass photometry (535 kDa); also called recombinant p97; purified p97; source: E. coli BL21(DE3), purified (Ni-NTA, Superose 6)
Description: pull-down; biotinylated VRM, VIM or VBM peptides immobilized on StrepTactin agarose, incubated with purified WT or mutant His6-p97, washed extensively in RIPA buffer, immunoblot. The conditions noted are these: both partners purified. In general terms: A western blot detects proteins with antibodies after separation by electrophoresis.

For experiment [2], the target named is T1, His6-p97 WT. Description: SPR; Biacore T200, 25 C, His6-p97 amine-coupled to CM5 chip (~400 RU), Strep-HA-VCF1 full-length as analyte up to 100 nM, PBS-P with 0.5 mM TCEP, 1:1 model. The note with it: both partners purified. (In general: Surface plasmon resonance follows binding to a sensor surface in real time, without labels.)

Where no end group is shown, it is not given here. The star is where a group is joined. Biotin = O=C1N[C@H]2[C@H](CS[C@H]2CCCCC(=O)*)N1

T1 sequence (P55072 whole entry): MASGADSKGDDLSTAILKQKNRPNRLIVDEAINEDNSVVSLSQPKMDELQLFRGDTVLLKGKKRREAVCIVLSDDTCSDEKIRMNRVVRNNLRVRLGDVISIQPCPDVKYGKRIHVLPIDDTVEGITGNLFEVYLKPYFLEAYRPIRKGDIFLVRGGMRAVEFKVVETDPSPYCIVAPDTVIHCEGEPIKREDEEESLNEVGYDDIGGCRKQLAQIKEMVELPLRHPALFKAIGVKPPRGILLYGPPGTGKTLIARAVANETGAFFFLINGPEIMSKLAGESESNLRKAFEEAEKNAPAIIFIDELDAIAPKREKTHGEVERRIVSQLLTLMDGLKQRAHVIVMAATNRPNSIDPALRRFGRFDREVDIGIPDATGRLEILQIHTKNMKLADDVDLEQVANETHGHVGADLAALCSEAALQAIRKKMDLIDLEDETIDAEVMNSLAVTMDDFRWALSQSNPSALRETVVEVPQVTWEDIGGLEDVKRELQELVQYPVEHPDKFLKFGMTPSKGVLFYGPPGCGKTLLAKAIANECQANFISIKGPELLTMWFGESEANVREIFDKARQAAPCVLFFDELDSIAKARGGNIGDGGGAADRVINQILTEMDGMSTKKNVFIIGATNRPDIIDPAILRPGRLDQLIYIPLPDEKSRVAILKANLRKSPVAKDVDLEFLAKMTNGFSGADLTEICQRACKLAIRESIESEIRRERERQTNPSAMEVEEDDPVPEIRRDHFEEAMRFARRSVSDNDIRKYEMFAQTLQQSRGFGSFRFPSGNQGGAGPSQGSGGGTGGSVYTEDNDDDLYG

B1: VBM (ATXN3, aa275-295) peptide (peptide)
peptide: Biotin-NLTSEELRKRREAYFEKQQQK
notes: ATXN3 (ataxin-3), human, VBM motif, aa275-295; also called peptide spanning the VBM in ATXN3; source: synthetic peptide, bought: GenScript
For B1, in the experiment with His6-p97 WT [1], the binding result is “binds”.

B2: VIM (SVIP, aa14-39) peptide (peptide)
peptide: Biotin-PTPDLEEKRAKLAEAAERRQKEAAS
notes: SVIP, human, VIM motif; also called peptide spanning the VIM in SVIP; source: synthetic peptide, bought: GenScript
Consider B2, for which the binding result with His6-p97 WT [1] is given as “binds”.

B3: Strep-HA-VCF1 WT (natural protein)
chain: not shown
notes: VCF1 (FAM104A), human, isoform 1, 186 amino acids; cDNA inserted into pcDNA5/FRT/TO/Strep-HA; also called recombinant VCF1; full-length VCF1; source: HEK293-EBNA1-6E, transfected, purified (Strep-Tactin, Superose 6)
On to B3, for which the Kd (in general, the concentration at which binding is half-saturated) in the experiment with His6-p97 WT [2] is approximately 10 nM.

These data come from paper PMC10950897 (Nature Communications, 2024).
